Reference: patent US20100196282A1, “OPTICAL IMAGING AGENTS” (priority 2007, published 2010)
pKd: −log10 of the molar value. Where a SMILES comes first, the peptide text is derived from it. Bridges are numbered along the chain shown (N, C = ends). The star is where a group is joined. X1 = CC1=CC(C)(C)N(CCCS(=O)(=O)O)c2cc3c(cc21)/C(=C/C=C/C1=[N+](CCCS(=O)(=O)O)c2ccc(S(=O)(=O)[O-])cc2C1(C)CCCC(=O)*)C=C(C(C)(C)C)O3; X5 = CCN1c2cc3c(cc2C(C)=CC1(C)C)/C(=C/C=C/C1=[N+](CCCS(=O)(=O)O)c2ccc(S(=O)(=O)[O-])cc2C1(C)CCCC(=O)*)C=C(C(C)(C)C)O3; X4 = CCN(CC)c1ccc2c(c1)OC(C(C)(C)C)=C/C2=C\C=C\C1=[N+](CCCS(=O)(=O)O)c2ccc(S(=O)(=O)[O-])cc2C1(C)CCCC(=O)*; X6 = CCN(CC)c1ccc2c(c1)OC(C(C)(C)C)=C/C2=C\C=C\C1=[N+](CCCCCC(=O)*)c2ccc(S(=O)(=O)[O-])cc2C1(C)C

Columns and labels:
human c-Met/Fc chimera = target: T1, human c-Met/Fc chimera (Homo sapiens, UniProt P08581); experiment: Fluorescence polarisation assay, affinity binding to cMet; conditions: 5 nM dye-labelled peptide, c-Met/Fc 0-250 nM, 10 min at 30° C., one-site binding
T1 construct: Fc (immunoglobulin Fc fusion partner); purchased R&D Systems
T1 sequence (P08581 with tags, fused parts or gaps limits assumed): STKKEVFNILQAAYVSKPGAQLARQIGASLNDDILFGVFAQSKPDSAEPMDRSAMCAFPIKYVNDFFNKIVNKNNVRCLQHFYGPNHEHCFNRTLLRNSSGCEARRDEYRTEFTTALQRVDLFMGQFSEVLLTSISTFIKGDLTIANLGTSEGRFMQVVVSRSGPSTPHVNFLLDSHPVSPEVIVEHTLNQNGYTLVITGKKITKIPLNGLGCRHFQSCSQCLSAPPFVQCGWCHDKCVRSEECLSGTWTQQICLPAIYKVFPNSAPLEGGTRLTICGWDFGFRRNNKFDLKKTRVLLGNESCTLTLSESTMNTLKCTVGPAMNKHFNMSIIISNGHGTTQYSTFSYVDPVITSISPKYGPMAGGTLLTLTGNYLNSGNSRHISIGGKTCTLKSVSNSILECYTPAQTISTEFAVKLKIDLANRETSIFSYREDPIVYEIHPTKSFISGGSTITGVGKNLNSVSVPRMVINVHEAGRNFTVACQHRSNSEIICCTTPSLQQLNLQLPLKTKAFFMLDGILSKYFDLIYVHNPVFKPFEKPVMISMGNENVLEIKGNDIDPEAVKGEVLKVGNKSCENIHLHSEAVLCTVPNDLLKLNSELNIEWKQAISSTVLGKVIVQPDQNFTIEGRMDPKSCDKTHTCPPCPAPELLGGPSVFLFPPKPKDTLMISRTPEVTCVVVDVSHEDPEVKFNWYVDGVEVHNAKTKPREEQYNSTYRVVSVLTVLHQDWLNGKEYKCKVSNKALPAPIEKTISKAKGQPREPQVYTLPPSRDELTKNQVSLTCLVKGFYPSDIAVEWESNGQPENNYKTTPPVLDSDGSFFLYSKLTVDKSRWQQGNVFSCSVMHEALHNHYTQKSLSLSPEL
T1 sequence (P08581 25-307 limits assumed, change not shown): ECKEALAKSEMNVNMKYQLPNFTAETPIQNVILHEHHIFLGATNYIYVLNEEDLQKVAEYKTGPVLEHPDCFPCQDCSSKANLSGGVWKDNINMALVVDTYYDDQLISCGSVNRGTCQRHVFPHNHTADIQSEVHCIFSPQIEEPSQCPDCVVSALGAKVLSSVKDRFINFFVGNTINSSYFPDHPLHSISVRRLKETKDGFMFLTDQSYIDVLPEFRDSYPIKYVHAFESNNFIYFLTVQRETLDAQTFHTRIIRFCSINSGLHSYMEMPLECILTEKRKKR
Description: Monochromatic light passes through a […] polarizing filter and excites fluorescent molecules in the sample. Only those molecules that oriented properly in the vertically polarized plane adsorb light, become excited, and subsequently emit light. The emitted light is measured in both horizontal and vertical planes. The anisotropy value (A), is the ratio between the light intensities following the equation
The fluorescence anisotropy measurements were performed in 384-well microplates in a volume of 10 μL in binding buffer (PBS, 0.01% Tween-20, pH 7.5) using a Tecan Safire fluorescence polarisation plate reader (Tecan, US) at Ex 635/Em 678 nm. The concentration of dye-labelled peptide was held constant (5 nM) and the concentration of the human c-Met/Fc chimera (R&D Systems) was varied from 0-250 nM. Binding mixtures were equilibrated in the microplate for 10 min at 30° C. The observed change in anisotropy was fitted to the equation: […]
where robs is the observed anisotropy, rfree is the anisotropy of the free peptide, rbound is the anisotropy of the bound peptide, Kd is the dissociation constant, cMet is the total c-Met concentration, and P is the total dye-labelled peptide concentration. The equation assumes that the synthetic peptide and the receptor form a reversible complex in solution with 1:1 stoichiometry. Data fitting was done via nonlinear regression using SigmaPlot software to obtain the Kd value (one-site binding).
Compounds 1 to 6 were tested for binding towards human c-Met (Fc chimera).

human serum albumin [1] = target: T2, human serum albumin (Homo sapiens, UniProt P02768); experiment: in vitro
T2 sequence (P02768 25-609): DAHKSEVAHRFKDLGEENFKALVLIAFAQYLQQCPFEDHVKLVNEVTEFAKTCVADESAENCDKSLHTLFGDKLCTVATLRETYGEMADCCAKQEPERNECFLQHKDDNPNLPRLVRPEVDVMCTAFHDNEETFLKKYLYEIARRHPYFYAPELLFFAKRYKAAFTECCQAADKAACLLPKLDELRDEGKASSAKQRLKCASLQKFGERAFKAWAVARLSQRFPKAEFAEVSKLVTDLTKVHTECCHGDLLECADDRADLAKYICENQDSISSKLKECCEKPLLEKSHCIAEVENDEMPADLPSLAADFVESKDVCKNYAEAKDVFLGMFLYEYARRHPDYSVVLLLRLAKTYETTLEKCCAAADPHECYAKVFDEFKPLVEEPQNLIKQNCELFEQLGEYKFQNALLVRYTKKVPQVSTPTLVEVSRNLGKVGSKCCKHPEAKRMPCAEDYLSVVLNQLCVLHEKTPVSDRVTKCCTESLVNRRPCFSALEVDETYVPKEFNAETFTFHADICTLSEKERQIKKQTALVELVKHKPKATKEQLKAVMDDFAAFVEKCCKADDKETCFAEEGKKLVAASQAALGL
Description: Fluorescence polarisation assay was used to examine the affinity binding of the imaging agent towards the cMet target as well as the binding properties related to plasma proteins. The principle of the fluorescence polarisation method can briefly be described as follows:
(§1) The change of the polarization value was used to assess the binding of the Compound to human serum albumin as a low change of polarisation value is associated to low binding being appropriate for in-vivo use.

in vitro = conditions: mouse, plasma
Description: as §1

human serum albumin [2] = target: T2, human serum albumin
[3] = Limited acute dose toxicity study in male rats; type: in vivo, rat; conditions: i.v.
Description: A limited acute dose toxicity study was conducted to investigate the tolerance of Compound 6 at 100 times the preclinical imaging dose (50 nmol/kg body weight).
The compound was injected intravenously in male rats, and the animals were sacrificed at 1, 14, 21 and 28 days post injection (p.i.). At necropsy, the major organs were inspected for gross pathology, and the kidneys were taken into neutral buffered formalin for subsequent histomorphological evaluation. A weak blue colouration of the skin and a moderate blue colouration of the urine were observed immediately after injection, which disappeared within 1 day p.i. […] The other minor changes seen were incidental and common in young adult laboratory rats. Strong fluorescence staining of blood vessels in the kidney was observed on day 1 p.i.

| SMILES | pKd (human c-Met/Fc chimera) | fraction unbound (human serum albumin [1]) | remaining at 2 h (in vitro) [%] | Binding human serum albumin (Biacore) (human serum albumin [2]) | Fluorescence staining of blood vessels in the kidney ([3]; 100 times dose, day 21 p.i. (strong on day 1, reduced by day 14)) | Light microscopy of the kidneys ([3]; 100 times dose, necropsy at 1, 14, 21 and 28 days p.i.) | Nephrotoxicity ([3]; 100 times dose, no degeneration, necrosis or inflammation) | Time to disappearance of blue colouration of skin and urine ([3]; 100 times dose, observed immediately after injection) [days] | Tolerance of a single intravenous administration ([3]; 100 times the preclinical imaging dose (50 nmol/kg body weight)) |
| --- | --- | --- | --- | --- | --- | --- | --- | --- | --- |
| CCN(CC)c1ccc2c(c1)OC(C(C)(C)C)=C/C2=C\C=C\C1=[N+](CCCCCC(=O)NCCCC[C@H](NC(=O)CNC(=O)CNC(=O)CNC(=O)[C@@H](NC(=O)CNC(=O)[C@H](CCC(=O)O)NC(=O)[C@@H](NC(=O)[C@H](CCC(=O)O)NC(=O)[C@H](Cc2ccc(O)cc2)NC(=O)[C@@H]2CSSC[C@H](NC(=O)[C@H](CO)NC(=O)CNC(=O)[C@H](C)NC(C)=O)C(=O)N[C@@H](Cc3ccc(O)cc3)C(=O)N[C@H]3CSSC[C@H](NC(=O)[C@H](CCC(=O)O)NC(=O)[C@H](Cc4ccccc4)NC(=O)[C@H](CCCNC(=N)N)NC(=O)[C@@H]4CCCN4C(=O)[C@@H]4CCCN4C(=O)CNC(=O)[C@H](CO)NC3=O)C(=O)N[C@@H](Cc3c[nH]c4ccccc34)C(=O)N2)[C@@H](C)O)[C@@H](C)O)C(N)=O)c2ccc(S(=O)(=O)[O-])cc2C1(C)C [Compound 1] (Ac-AGSCYCSGPPRFECWCYETEGTGGGK(X6)-NH2; disulfide 4-16, 6-14) | 8.66 | 0.64 | > 95 | Very high | – | – | – | – | – |
| CCN(CC)c1ccc2c(c1)OC(C(C)(C)C)=C/C2=C\C=C\C1=[N+](CCCS(=O)(=O)O)c2ccc(S(=O)(=O)[O-])cc2C1(C)CCCC(=O)NCCCC[C@H](NC(=O)CNC(=O)CNC(=O)CNC(=O)[C@@H](NC(=O)CNC(=O)[C@H](CCC(=O)O)NC(=O)[C@@H](NC(=O)[C@H](CCC(=O)O)NC(=O)[C@H](Cc1ccc(O)cc1)NC(=O)[C@@H]1CSSC[C@H](NC(=O)[C@H](CO)NC(=O)CNC(=O)[C@H](C)NC(C)=O)C(=O)N[C@@H](Cc2ccc(O)cc2)C(=O)N[C@H]2CSSC[C@H](NC(=O)[C@H](CCC(=O)O)NC(=O)[C@H](Cc3ccccc3)NC(=O)[C@H](CCCNC(=N)N)NC(=O)[C@@H]3CCCN3C(=O)[C@@H]3CCCN3C(=O)CNC(=O)[C@H](CO)NC2=O)C(=O)N[C@@H](Cc2c[nH]c3ccccc23)C(=O)N1)[C@@H](C)O)[C@@H](C)O)C(N)=O (stereo partly drawn) [Compound 2] (Ac-AGSCYCSGPPRFECWCYETEGTGGGK(X4)-NH2; disulfide 4-16, 6-14) | 9.30 | 0.67 | > 95 | Very low | – | – | – | – | – |
| CCN1c2cc3c(cc2C(C)=CC1(C)C)/C(=C/C=C/C1=[N+](CCCS(=O)(=O)O)c2ccc(S(=O)(=O)[O-])cc2C1(C)CCCC(=O)NCCCC[C@H](NC(=O)CNC(=O)CNC(=O)CNC(=O)[C@@H](NC(=O)CNC(=O)[C@H](CCC(=O)O)NC(=O)[C@@H](NC(=O)[C@H](CCC(=O)O)NC(=O)[C@H](Cc1ccc(O)cc1)NC(=O)[C@@H]1CSSC[C@H](NC(=O)[C@H](CO)NC(=O)CNC(=O)[C@H](C)NC(C)=O)C(=O)N[C@@H](Cc2ccc(O)cc2)C(=O)N[C@H]2CSSC[C@H](NC(=O)[C@H](CCC(=O)O)NC(=O)[C@H](Cc4ccccc4)NC(=O)[C@H](CCCNC(=N)N)NC(=O)[C@@H]4CCCN4C(=O)[C@@H]4CCCN4C(=O)CNC(=O)[C@H](CO)NC2=O)C(=O)N[C@@H](Cc2c[nH]c4ccccc24)C(=O)N1)[C@@H](C)O)[C@@H](C)O)C(N)=O)C=C(C(C)(C)C)O3 (stereo partly drawn) [Compound 5] (Ac-AGSCYCSGPPRFECWCYETEGTGGGK(X5)-NH2; disulfide 4-16, 6-14) | 8.66 | 0.51 | > 95 | Medium | – | – | – | – | – |
| CC(=O)N[C@@H](C)C(=O)NCC(=O)N[C@@H](CO)C(=O)N[C@H]1CSSC[C@@H](C(=O)N[C@@H](Cc2ccc(O)cc2)C(=O)N[C@@H](CCC(=O)O)C(=O)N[C@H](C(=O)N[C@@H](CCC(=O)O)C(=O)NCC(=O)N[C@H](C(=O)NCC(=O)NCC(=O)NCC(=O)N[C@@H](CCCCNC(=O)CCCC2(C)C(/C=C/C=C3\C=C(C(C)(C)C)Oc4cc5c(cc43)C(C)=CC(C)(C)N5CCCS(=O)(=O)O)=[N+](CCCS(=O)(=O)O)c3ccc(S(=O)(=O)[O-])cc32)C(N)=O)[C@@H](C)O)[C@@H](C)O)NC(=O)[C@H](Cc2c[nH]c3ccccc23)NC(=O)[C@@H]2CSSC[C@H](NC(=O)[C@H](Cc3ccc(O)cc3)NC1=O)C(=O)N[C@@H](CO)C(=O)NCC(=O)N1CCC[C@H]1C(=O)N1CCC[C@H]1C(=O)N[C@@H](CCCNC(=N)N)C(=O)N[C@@H](Cc1ccccc1)C(=O)N[C@@H](CCC(=O)O)C(=O)N2 (stereo partly drawn) [Compound 6] (Ac-AGSCYCSGPPRFECWCYETEGTGGGK(X1)-NH2; disulfide 4-16, 6-14) | 9.05 | 0.54 | > 95 | Very low | not discernible from control | no Compound 6-related findings in the kidneys | low | ≤ 1 | well tolerated and without any drug substance related adverse effects |
